Assay [1] deals with T1, human IgE; monoclonal antibody SE44 (human, UniProt P01854-1 1-428).
T1 construct: domain: human e constant region; also called IgE (SE44); human monoclonal IgE (SE44)
Put plainly: BIAcore SPR, antibody captured via anti-human IgG, IgE SE44 3.125-25 nM in flow, 25°C.

The target of assay [2] is T1, human IgE; monoclonal antibody SE44. Put plainly: BIAcore SPR, antibody captured via anti-human IgG, IgE SE44 25 nM, dissociation in HBS, 25°C. (In general: SPR reads the build-up and loss of mass on a sensor chip optically.)
The target is the same in assay [3]. Put plainly: BIAcore SPR, Kaff from kass and kdiss.

Numbering of substitutions follows the chain as printed.

Drawing on patent EP1452542A2 (Novartis AG, dated 2004), this text covers kon, koff and Ka for nine molecules.

B1: reshaped human C21 antibody C21-H3/L1 (antibody, V domains shown)
VH: QVQLVQSGAEVKKPGASVKVSCKASGYTFSMYWLEWVRQAPGHGLEWVGEISPGTFTTNYNEKFKARATFTADTSTNTAYMELSSLRSEDTAVYYCARFSHFSGSNYDYFDYWGQGTLVTVSS
VL: DILLTQSPGTLSLSPGERATLSCRASQSIGTNIHWYQQKPGQAPRLLIKYASESISGIPSRFSGSGSGTDFTLTISRLEPEDFAMYYCQQSDSWPTTFGQGTKVEIK
Broadly, the kon is a measure of how fast the partners come together. A higher kon goes with faster complex formation. By koff is commonly meant the rate constant with which the complex falls apart. A high value points to fast dissociation. As to B1, the kon in assay [1] was 250000 M⁻¹ s⁻¹. Moreover, in assay [2], the koff came to 1.9e-05 s⁻¹. The same molecule showed a Ka in assay [3] of 1.32e+10 M⁻¹.

B2: reshaped human C21 antibody C21-H1/L1 (antibody, V domains shown)
VH: B1 VH with R38K, A40R, R67K, R87T
VL: B1 VL
For B2, the kon in assay [1] was found to be 260000 M⁻¹ s⁻¹. The molecule further showed a koff in assay [2] of 3e-05 s⁻¹. Also, the Ka in assay [3] worked out at 8.7e+09 M⁻¹.

B3: reshaped human C21 antibody C21-Hay3/L3 (antibody, V domains shown)
VH: B1 VH with H43Q, G44R, V48M, T76A, N77S
VL: B1 VL with D1E, L3V
In assay [1], B3 came in with a kon of 260000 M⁻¹ s⁻¹. Moreover, in assay [2], the koff is 0.000159 s⁻¹. In assay [3], this molecule yielded a Ka of 1.6e+09 M⁻¹.

B4: reshaped human C21 antibody C21-H3/L2 (antibody, V domains shown)
VH: B1 VH
VL: B1 VL with S60D
On to B4, for which the kon in assay [1] was 250000 M⁻¹ s⁻¹. In assay [2], this molecule had a koff of 4.4e-05 s⁻¹. In assay [3], this molecule came in with a Ka of 5.7e+09 M⁻¹.

B5: reshaped human C21 antibody C21-Hay3/L2 (antibody, V domains shown)
VH: B1 VH with H43Q, G44R, V48M, T76A, N77S
VL: B1 VL with S60D
For the molecule B5, the kon in assay [1] turned out to be 250000 M⁻¹ s⁻¹. The molecule also came in with a koff in assay [2] of 3.1e-05 s⁻¹. The Ka in assay [3] stood at 8.1e+09 M⁻¹.

B6: reshaped human C21 antibody C21-H1/L3 (antibody, V domains shown)
VH: B1 VH with R38K, A40R, R67K, R87T
VL: B1 VL with D1E, L3V
notes: C21-L3 is C21-L1 with Glu instead of Asp at position 1 and Val instead of Leu at position 3
In assay [1], B6 yielded a kon of 290000 M⁻¹ s⁻¹. For the same molecule, the koff in assay [2] was determined as 6.2e-05 s⁻¹. This molecule gave a Ka in assay [3] of 4.7e+09 M⁻¹.

B7: reshaped human C21 antibody C21-H3/L3 (antibody, V domains shown)
VH: B1 VH
VL: B1 VL with D1E, L3V
In assay [1], B7 had a kon of 260000 M⁻¹ s⁻¹. The same molecule registered a koff in assay [2] of 3.5e-05 s⁻¹. The Ka in assay [3] was 7.4e+09 M⁻¹.

B8: reshaped human C21 antibody C21-H1/L2 (antibody, V domains shown)
VH: B1 VH with R38K, A40R, R67K, R87T
VL: B1 VL with S60D
notes: C21-L2 is C21-L1 with aspartic acid instead of serine at position 60
Turning to B8, in assay [1], the kon is 280000 M⁻¹ s⁻¹. In assay [2], this molecule displayed a koff of 5.7e-05 s⁻¹. The Ka in assay [3] worked out at 4.9e+09 M⁻¹.

B9: reshaped human C21 antibody C21-Hay3/L1 (antibody, V domains shown)
VH: B1 VH with H43Q, G44R, V48M, T76A, N77S
VL: B1 VL
B9: in assay [1], the kon was found to be 250000 M⁻¹ s⁻¹. Besides, in assay [2], the koff was 4.1e-05 s⁻¹. Also, the Ka in assay [3] amounted to 6.1e+09 M⁻¹.
